Experimental data reported in patent US7235366 (dated 2007).
Positions of bridges follow the written chain, without caps; N, C: chain ends. No end group written: not given here.

T1: mouse kappa opioid receptor (mORK1, msl-1) (Mus musculus)
T1 chain: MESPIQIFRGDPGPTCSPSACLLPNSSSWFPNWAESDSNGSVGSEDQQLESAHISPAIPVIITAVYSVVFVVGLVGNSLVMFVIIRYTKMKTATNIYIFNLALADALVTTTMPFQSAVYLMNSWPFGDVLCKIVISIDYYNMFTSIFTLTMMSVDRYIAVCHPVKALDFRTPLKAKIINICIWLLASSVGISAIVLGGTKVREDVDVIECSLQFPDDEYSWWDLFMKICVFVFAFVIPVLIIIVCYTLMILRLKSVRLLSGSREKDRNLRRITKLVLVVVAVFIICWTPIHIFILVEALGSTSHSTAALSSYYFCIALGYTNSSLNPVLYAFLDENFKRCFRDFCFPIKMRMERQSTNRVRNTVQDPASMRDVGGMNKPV

T2: mouse delta opioid receptor (mORD1, msl-2) (Mus musculus)
T2 chain: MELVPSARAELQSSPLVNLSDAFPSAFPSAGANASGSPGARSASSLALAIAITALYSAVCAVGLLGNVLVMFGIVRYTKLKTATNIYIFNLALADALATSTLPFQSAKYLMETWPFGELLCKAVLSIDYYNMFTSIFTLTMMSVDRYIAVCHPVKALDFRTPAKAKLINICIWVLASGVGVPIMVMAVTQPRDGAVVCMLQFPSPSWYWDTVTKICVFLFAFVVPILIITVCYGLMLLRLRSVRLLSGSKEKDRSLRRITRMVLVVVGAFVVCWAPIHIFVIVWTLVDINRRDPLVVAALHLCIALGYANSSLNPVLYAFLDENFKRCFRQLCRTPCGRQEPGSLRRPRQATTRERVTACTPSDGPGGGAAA

T3: rat mu opioid receptor (Rattus norvegicus, UniProt P33535)
T3 chain: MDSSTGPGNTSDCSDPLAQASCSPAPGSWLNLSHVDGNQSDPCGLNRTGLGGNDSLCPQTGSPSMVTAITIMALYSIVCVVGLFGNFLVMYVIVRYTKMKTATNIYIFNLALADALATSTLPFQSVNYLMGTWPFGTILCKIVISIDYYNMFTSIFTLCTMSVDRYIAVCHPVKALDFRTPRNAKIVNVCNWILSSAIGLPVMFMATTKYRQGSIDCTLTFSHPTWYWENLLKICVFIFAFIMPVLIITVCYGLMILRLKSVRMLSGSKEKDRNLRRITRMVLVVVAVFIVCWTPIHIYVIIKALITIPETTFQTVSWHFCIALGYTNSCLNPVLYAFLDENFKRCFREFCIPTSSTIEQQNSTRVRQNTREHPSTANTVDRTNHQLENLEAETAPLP

T4: delta opioid receptor D128N mutant (Mus musculus)
T4 chain: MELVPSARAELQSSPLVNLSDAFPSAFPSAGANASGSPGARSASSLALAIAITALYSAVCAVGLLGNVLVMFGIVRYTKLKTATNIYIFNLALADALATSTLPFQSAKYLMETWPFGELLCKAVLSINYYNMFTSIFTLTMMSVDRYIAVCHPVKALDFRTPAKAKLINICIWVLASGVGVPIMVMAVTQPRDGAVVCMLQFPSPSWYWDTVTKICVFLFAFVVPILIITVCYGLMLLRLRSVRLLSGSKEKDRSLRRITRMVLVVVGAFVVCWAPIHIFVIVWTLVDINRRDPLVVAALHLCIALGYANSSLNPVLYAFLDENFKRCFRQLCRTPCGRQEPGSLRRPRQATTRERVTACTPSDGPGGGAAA

T5: MOP2 (Mus musculus)
T5 chain: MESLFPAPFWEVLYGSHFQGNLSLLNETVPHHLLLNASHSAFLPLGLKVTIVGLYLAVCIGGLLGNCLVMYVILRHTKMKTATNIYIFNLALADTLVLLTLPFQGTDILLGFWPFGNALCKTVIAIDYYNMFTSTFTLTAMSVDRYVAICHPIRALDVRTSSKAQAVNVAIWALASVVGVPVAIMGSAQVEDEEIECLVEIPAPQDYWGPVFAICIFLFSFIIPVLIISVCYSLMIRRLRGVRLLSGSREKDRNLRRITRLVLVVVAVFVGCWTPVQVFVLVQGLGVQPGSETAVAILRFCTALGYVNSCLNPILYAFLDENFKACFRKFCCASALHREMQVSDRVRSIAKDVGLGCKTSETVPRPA


Columns and labels:
[1] = molecular target: T1, mouse kappa opioid receptor (mORK1, …); test: competition
[2] = molecular target: T2, mouse delta opioid receptor (mORD1, …); test: competition
rat mu opioid receptor = molecular target: T3, rat mu opioid receptor; test: competition
[3] = molecular target: T2, mouse delta opioid receptor (mORD1, …); test: competition
[4] = molecular target: T4, delta opioid receptor D128N mutant; test: other (direct radioligand binding)
MOP2 = molecular target: T5, MOP2; test: other (direct radioligand binding)

| IC50 [1] | IC50 [2] | Ki (rat mu opioid receptor) | Ki [3] | binding result [4] | binding result (MOP2) | Binder |
| --- | --- | --- | --- | --- | --- | --- |
| > 1000 nM | > 1000 nM |  |  |  |  | SANSNPAMAPRERKAGCKNFFWKTFTSC (disulfide 17-28 (inferred)) [SRIF] |
|  |  | 1 nM | 1 nM | no binding | no binding | beta-Endorphin (protein) WCLESSQCQDLTTESNLLECIRACKPDLSAETPMFPGNGDEQPLTENPRKYVMGHFRWDRFGRRNSSSSGSSGAGQKREDVSAGEDCGPLPEGGPEPRSDGAKPGPREGKRSYSMEHFRWGKPVGKKRRPVKVYPNGAEDESAEAFPLEFKRELTGQRLREGDGPDGPADDGAGAQADLEHSLLVAAEKKDEGPYRMEHFRWGSPPKDKRYGGFMTSEKSQTPLVTLFKNAIIKNAYKKGE |
